Test: Hydrolysis of polysorbate 80 by spiked LAL, oleic acid release by LC-MS
Type: biochemical
Settings: 5 ppm LAL, 0.1% PS80, pH 5.5, after 2 days of incubation

B1: LAL: lysosomal acid lipase; recombinant CHO LAL generated in-house, spiked into PS80 samples (protein, UniProt P38571 77-399, looked up)
Lysosomal acid …: GPKPVVFLQHGLLADSSNWVTNLANSSLGFILADAGFDVWMGNSRGNTWSRKHKTLSVSQDEFWAFSYDEMAKYDLPASINFILNKTGQEQVYYVGHSQGTTIGFIAFSQIPELAKRIKMFFALGPVASVAFCTSPMAKLGRLPDHLIKDLFGDKEFLPQSAFLKWLGTHVCTHVILKELCGNLCFLLCGFNERNLNMSRVDVYTTHSPAGTSVQNMLHWSQAVKFQKFQAFDWGSSAKNYFHYNQSYPPTYNVKDMLVPTAVWSGGHDWLADVYDVNILLTQITNLVFHESIPEWEHLDFIWGLDAPWRLYNKIINLMRKYQ
modifications: recombinant, CHO-expressed
notes: lysosomal acid lipase; recombinant CHO LAL generated in-house, spiked into PS80 samples
- oleic acid released (hydrolysis of PS80): 3 µg/mL

Reference: patent US12540945B2, “Probe and method for identifying host cell protein impurities” (Regeneron Pharmaceuticals, Inc., priority 2021, dated 2026)
